The record followed here is patent US20200317768A1 (published 2020).

The target of test [1] is T1, cynomolgus monkey FcγRIIa1 extracellular domain, C-terminal His-tag (cynomolgus monkey).
T1 construct: also called cyno FcγRIIa1; cynoFcgRIIa1; not shown: His-tag added to C-terminus
T1 chain: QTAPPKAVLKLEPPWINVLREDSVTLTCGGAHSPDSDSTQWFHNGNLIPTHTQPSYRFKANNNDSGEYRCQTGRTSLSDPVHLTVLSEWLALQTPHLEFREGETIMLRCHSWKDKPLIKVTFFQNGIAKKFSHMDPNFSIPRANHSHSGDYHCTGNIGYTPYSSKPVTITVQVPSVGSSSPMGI
As to the kind of experiment: SPR (BIACORE), antibody captured, FcγR analyte. The method, then:
(§1) The kinetic analysis of interactions between these antibodies and FcγR was carried out using BIACORE® T200 or BIACORE® 4000 (GE Healthcare). HBS-EP+ (GE Healthcare) was used as the running buffer, and the measurement temperature was set to 25° C. A chip produced by immobilizing Protein A. Protein A/G or mouse anti-human IgG kappa light chain (BD Biosciences) onto a Series S Sensor Chip CM4 or CM5 (GE Healthcare) by the amine-coupling method was used. […] After the measurement, the antibody captured on the chip was washed off by allowing reaction with 10 mM glycine-HCl, pH1.5 and 25 mM NaOH so that the chip was regenerated and used repeatedly. The sensorgrams obtained as measurement results were analyzed by the 1:1 Langmuir binding model using the BIACORE® Evaluation Software to calculate the binding rate constant ka (L/mol/s) and dissociation rate constant kd (l/s), and the dissociation constant KD (mol/L) was calculated from these values. […] Regarding such interactions, KD values were calculated using the following 1:1 binding model described in BIACORE® T100 Software Handbook BR1006-48 Edition AE.

Test [2] addresses T2, cynomolgus monkey FcγRIIa2 extracellular domain, C-terminal His-tag (cynomolgus monkey).
T2 construct: also called cyno FcγRIIa2; cynoFcgRIIa2; not shown: His-tag added to C-terminus
T2 chain: T1 chain with P95T, T121A, I127K, A128S, K130N, D135N, R142Q
Nature of the test: SPR (BIACORE), antibody captured, FcγR analyte. The method, then: as §1

Test [3] addresses T3, cynomolgus monkey FcγRIIa3 extracellular domain, C-terminal His-tag (cynomolgus monkey).
T3 construct: also called cyno FcγRIIa3; cynoFcgRIIa3; not shown: His-tag added to C-terminus
T3 chain: T1 chain with P95T, T121A, A128S, H133P, D135N
Nature of the test: SPR (BIACORE), antibody captured, FcγR analyte. The method, then: as §1

Test [4] deals with T4, cynomolgus monkey FcγRIIb extracellular domain, C-terminal His-tag (cynomolgus monkey).
T4 construct: also called cyno FcγRIIb; cynoFcγRIIb; not shown: His-tag added to C-terminus
T4 chain: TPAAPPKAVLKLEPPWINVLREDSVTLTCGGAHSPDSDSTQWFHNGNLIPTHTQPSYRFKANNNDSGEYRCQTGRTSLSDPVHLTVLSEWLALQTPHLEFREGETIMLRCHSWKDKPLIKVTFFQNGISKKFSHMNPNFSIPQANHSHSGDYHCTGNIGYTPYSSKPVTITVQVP
As to the kind of experiment: SPR (BIACORE), antibody captured, FcγR analyte. The method, then: as §1

Test [5] deals with T5, cynomolgus monkey FcγRIIIaS extracellular domain, C-terminal His-tag (cynomolgus monkey, UniProt A3RFZ7 21-206 (rhesus entry)).
T5 construct: also called cyno FcγRIIIaS; cynoFcγRIIIaS; not shown: His-tag added to C-terminus
Nature of the test: SPR (BIACORE), antibody captured, FcγR analyte. Here is the method:
as §1

Test [6] deals with T6, human FcγRIIaH extracellular domain, C-terminal His-tag (human, UniProt P12318 34-217).
T6 construct: also called human FcγRIIa (type H); FcgRIIaH; not shown: His-tag added to C-terminus
T6 sequence: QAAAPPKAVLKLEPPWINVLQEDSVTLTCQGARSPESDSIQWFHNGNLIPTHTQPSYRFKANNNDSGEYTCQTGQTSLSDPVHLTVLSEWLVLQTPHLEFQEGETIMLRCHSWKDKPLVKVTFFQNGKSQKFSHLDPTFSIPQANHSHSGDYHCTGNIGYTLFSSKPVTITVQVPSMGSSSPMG
As to the kind of experiment: SPR (BIACORE), antibody captured, FcγR analyte. Here is the method: as §1

For test [7], the target named is T7, human FcγRIIaR extracellular domain, C-terminal His-tag (human, UniProt P12318 34-217).
T7 construct: also called human FcγRIIa (type R); FcgRIIaR; not shown: His-tag added to C-terminus
T7 chain: T6 sequence with H134R
As to the kind of experiment: SPR (BIACORE), antibody captured, FcγR analyte. The method, then: as §1

The target of test [8] is T8, human FcγRIIb extracellular domain, C-terminal His-tag (human, UniProt P31994 43-217).
T8 construct: also called humanFcgRIIb; not shown: His-tag added to C-terminus
T8 sequence: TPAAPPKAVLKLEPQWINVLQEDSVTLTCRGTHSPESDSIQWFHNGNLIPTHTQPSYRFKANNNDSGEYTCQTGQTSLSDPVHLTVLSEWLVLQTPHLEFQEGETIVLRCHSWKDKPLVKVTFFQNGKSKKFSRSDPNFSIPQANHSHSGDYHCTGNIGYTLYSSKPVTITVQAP
As to the kind of experiment: SPR (BIACORE), antibody captured, FcγR analyte. Here is the method:
as §1

The target in test [9] is T9, human FcγRIIIaV extracellular domain, C-terminal His-tag (human, UniProt P08637 17-208).
T9 construct: also called FcgRIIIaV; not shown: His-tag added to C-terminus
As to the kind of experiment: SPR (BIACORE), antibody captured, FcγR analyte. Here is the method:
as §1

Test [10] addresses T1, cynomolgus monkey FcγRIIa1 …. Nature of the test: SPR (BIACORE); KD of parent SG1 / KD of variant.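 Also: relative to parent M103205H795-SG1 carrying the SG1 human heavy chain constant region.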 Here is the method: as §1
Test [11] concerns the target T2, cynomolgus monkey FcγRIIa2 …. As to the kind of experiment: SPR (BIACORE); KD of parent SG1 / KD of variant.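 Also: relative to parent M103205H795-SG1 carrying the SG1 human heavy chain constant region.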 Here is the method: as §1
For test [12], the target named is T3, cynomolgus monkey FcγRIIa3 …. As to the kind of experiment: SPR (BIACORE); KD of parent SG1 / KD of variant.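 Also: relative to parent M103205H795-SG1 carrying the SG1 human heavy chain constant region.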 The method, then:
as §1

Test [13] concerns the target T4, cynomolgus monkey FcγRIIb extracellular …. Nature of the test: SPR (BIACORE); KD of parent SG1 / KD of variant.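 Also: relative to parent M103205H795-SG1 carrying the SG1 human heavy chain constant region.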 Here is the method:
as §1

The target in test [14] is T5, cynomolgus monkey FcγRIIIaS …. Nature of the test: SPR (BIACORE); KD of parent SG1 / KD of variant. The method, then: as §1
Test [15] addresses T6, human FcγRIIaH extracellular domain, …. As to the kind of experiment: SPR (BIACORE); KD of parent SG1 / KD of variant. The method, then:
as §1

The target of test [16] is T7, human FcγRIIaR extracellular domain, …. Nature of the test: SPR (BIACORE); KD of parent SG1 / KD of variant. The method, then: as §1
The target in test [17] is T8, human FcγRIIb extracellular domain, …. Nature of the test: SPR (BIACORE); KD of parent SG1 / KD of variant. Here is the method:
as §1

Test [18] addresses T9, human FcγRIIIaV extracellular domain, …. Nature of the test: SPR (BIACORE); KD of parent SG1 / KD of variant. Here is the method: as §1

Numbering of substitutions follows the chain as printed. Numbers in names are those of the source.

T9 sequence (P08637 17-208 F176V): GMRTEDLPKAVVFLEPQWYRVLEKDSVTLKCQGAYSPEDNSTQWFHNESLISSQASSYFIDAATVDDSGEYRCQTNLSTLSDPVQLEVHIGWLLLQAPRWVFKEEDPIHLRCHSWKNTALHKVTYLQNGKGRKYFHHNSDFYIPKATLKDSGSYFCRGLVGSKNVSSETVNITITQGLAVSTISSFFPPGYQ
T5 sequence (A3RFZ7 21-206): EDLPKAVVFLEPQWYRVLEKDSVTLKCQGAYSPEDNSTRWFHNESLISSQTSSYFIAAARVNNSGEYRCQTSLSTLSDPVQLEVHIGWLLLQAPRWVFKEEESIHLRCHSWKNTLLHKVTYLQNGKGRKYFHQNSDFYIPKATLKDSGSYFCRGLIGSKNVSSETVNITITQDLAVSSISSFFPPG

B1: M103205H795-SG1016 / M103202L889-SK1 (antibody, human IgG1, kappa)
heavy: QVTLKESGPVLVKPTETLTLTCTVSGIDLSHDDISWVRQAPGKGLEWVGIISYAGSTYYASWAKGRLTISKDTSKNQVVLTMTNMDPVDTATYYCARGVPAYSHGGDLWGQGTLVTVSSASTKGPSVFPLAPSSKSTSGGTAALGCLVKDYFPEPVTVSWNSGALTSGVHTFPAVLQSSGLYSLSSVVTVPSSSLGTQTYICNVNHKPSNTKVDKKVEPKSCDKTHTCPPCPAPELLNGPSVFLFPPKPKDTLMISRTPEVTCVVVDVSEEDPEVKFNWYVDGVEVHNAKTKPREEQYNSTYRVVSVLTVLHRDWLNGKEYKCKVSNKALPKPIEKTISKAKGQPREPQVYTLPPSREEMTKNQVSLTCLVKGFYPSDIAVEWESNGQPENNYKTTPMVLRSDGSFFLYSKLTVDKSRWQQGNVFSCSVMHEALHAHYTQKSLSLSP
light: DIVMTQSPATLSLSPGERATLSCTSSQSVYHANWLSWFQQKPGQPPKLLIYWASTLAYGVPSRFSGSGSGTDFTLTISSLQPEDAATYYCAGGYGGGRYAFGQGTKVEIKRTVAAPSVFIFPPSDEQLKSGTASVVCLLNNFYPREAKVQWKVDNALQSGNSQESVTEQDSKDSTYSLSSTLTLSKADYEKHKVYACEVTHQGLSSPVTKSFNRGEC
notes: the text says Q311R/D399K; also called MS1032LO06-SG1016
Turning to B1, the Kd in test [1] amounted to 1300 nM; in test [2], 1100 nM; in [3], 2200 nM; in [4], 330 nM; in [5] it was 2400 nM; in [6] it was 500 nM. Further, the values for the Kd in [7], in [8] and in test [9] were 820 nM, 550 nM and 10000 nM, respectively. Moreover, the “KD fold (SG1 = 1)” value came to 3.8 fold in test [10]; 4.1 fold in test [11]; 3.9 fold in test [12]; 6 fold in test [13]; 0.12 fold in [14]; 1.5 fold in [15]. Also, the “KD fold (SG1 = 1)” value in test [16] was determined as 1.2 fold; in [17], 8.7 fold; in [18], 0.06 fold.

B2: M103205H795-SG1029 / M103202L889-SK1 (antibody, human IgG1, kappa)
heavy: B1 heavy with E270D, Q297L, M398P, R401D, D415K
light: B1 light
notes: CH with G236N/H268D/Q295L/Q311R/A330K/D413K/N434A against SG1 (EU numbering); also called MS1032LO06-SG1029
B2: the Kd in test [1] was 1400 nM; in test [2], 1500 nM; in [3] it was 3100 nM; in [4] it was 400 nM; in test [5], 5300 nM; in test [6] it was 790 nM. The Kd in [7] came out at 1300 nM; in test [8], 900 nM; in test [9], 20000 nM. In addition, the “KD fold (SG1 = 1)” value in test [10] turned out to be 3.5 fold; in test [11], 3.1 fold; in test [12], 2.8 fold; in [13] it was 4.9 fold; in test [14], 0.05 fold; in [15] it was 1.1 fold. Besides, the “KD fold (SG1 = 1)” value is 0.8 fold in test [16], 5.3 fold in test [17] and 0.03 fold in [18].

B3: M103205H795-SG1033 / M103202L889-SK1 (antibody, human IgG1, kappa)
heavy: B1 heavy with E270D, R313Q, M398P, R401D
light: B1 light
notes: CH with G236N/H268D/A330K/N434A against SG1 (EU numbering); also called MS1032LO06-SG1033
Turning to B3, the Kd in [1] amounted to 1800 nM; in test [2], 1500 nM; in test [3], 3000 nM; in test [4], 500 nM; in test [5], 4400 nM; in test [6] it was 1200 nM. Also, the Kd in [7] was found to be 1000 nM; in test [8] it was 1200 nM; in test [9], 12000 nM. Also, the “KD fold (SG1 = 1)” value in test [10] came out at 2.6 fold; in test [11] it was 3 fold; in test [12] it was 2.9 fold; in [13], 3.9 fold; in [14], 0.06 fold; in [15], 0.7 fold. Besides, the “KD fold (SG1 = 1)” value in test [16] was found to be 1 fold; in [17] it was 3.9 fold; in [18] it was 0.05 fold.

B4: M103205H795-SG1031 / M103202L889-SK1 (antibody, human IgG1, kappa)
heavy: B1 heavy with E270D, M398P, R401D, D415K
light: B1 light
notes: CH with G236N/H268D/Q311R/A330K/D413K/N434A against SG1 (EU numbering); also called MS1032LO06-SG1031
B4: the Kd amounted to 1800 nM in test [1]; 1500 nM in test [2]; 2800 nM in test [3]; 500 nM in [4]; 4400 nM in test [5]; 1800 nM in test [6]. The values for the Kd in [7], in test [8] and in test [9] were 800 nM, 1200 nM and 15000 nM, respectively. Moreover, the “KD fold (SG1 = 1)” value was found to be 2.6 fold in [10]; 3.1 fold in [11]; 3.1 fold in test [12]; 3.9 fold in test [13]; 0.06 fold in [14]; 0.7 fold in [15]. The “KD fold (SG1 = 1)” value in test [16] was found to be 1.3 fold; in test [17], 3.8 fold; in [18] it was 0.04 fold.
